84 variants from the RNAGym collection of RNA variant scans (doi:10.1073/pnas.2313332121) can be followed below.

The chains are these.
B1: TPR t1 (parent)
chain: GACCAAUCUGCCCUCAGAGCUCGAGAACAUCUUCGGAUGCAGAGGAGGCAGGCUUCGGUGGCGCGAUAGCGCCAACGUCCUCAACCUCCAAUGCAUCCCACCACAUGAUGAUGCCUGAAGAGCCUUGGUUUUUUG

In the data set the parent is B1. Put plainly: polymerase ribozyme fitness, log enrichment relative to wild type (log ratio); higher = more active; in vitro selection for triplet polymerase activity. The gist of the method:
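A heterodimeric triplet polymerase ribozyme had each of its subunits mutagenized by PCR into a library, which was transcribed. One round of in vitro selection, done in triplicate, annealed each library with a biotinylated primer, its partner subunit and triplets, then incubated it frozen at −7 °C before gel excision of extended constructs, streptavidin-bead capture and RT-PCR. Fitness is the logarithm of genotype enrichment relative to wild-type enrichment, based on Illumina sequencing of inputs and outputs and inverse-variance-weighted replicate averages. A base-2 logarithm is used, and genotypes were kept only with ≥10 input reads and ≥1 read per output.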
A50C C56U: the “polymerase ribozyme fitness (log ratio)” value was -0.0268.

With G61U U78G C79U G122U, the “polymerase ribozyme fitness (log ratio)” value was 0.33.

As to C11G G71U, the “polymerase ribozyme fitness (log ratio)” value came out at 0.0897.

Turning to U21G C22U U92G C104A U109A, the “polymerase ribozyme fitness (log ratio)” value was -5.96.

With G42C A66U A83U, the “polymerase ribozyme fitness (log ratio)” value is -3.36.

Take U7G U96A A121C: the “polymerase ribozyme fitness (log ratio)” value was 0.553.

For the variant C3A A5U A29G U116C, the “polymerase ribozyme fitness (log ratio)” value was -2.92.

As for C80U C114A, the “polymerase ribozyme fitness (log ratio)” value is -1.85.

For the variant G39A G135U, the “polymerase ribozyme fitness (log ratio)” value was -1.41.

On to U78G A111U U131A, for which the “polymerase ribozyme fitness (log ratio)” value is -2.99.

Regarding C11U G45A G48A, the “polymerase ribozyme fitness (log ratio)” value is -2.77.

On to C13G G69C C98U, for which the “polymerase ribozyme fitness (log ratio)” value is -3.93.

Consider C3U U7C C86A A121G, for which the “polymerase ribozyme fitness (log ratio)” value is 2.02.

C89U A105G: the “polymerase ribozyme fitness (log ratio)” value is -2.76.

In the case of A5G G47U A50C C62U A105C, the “polymerase ribozyme fitness (log ratio)” value was -6.17.

With G17C G61U G93U C114A G127U, the “polymerase ribozyme fitness (log ratio)” value was -6.

Turning to C28U A46G U129G, the “polymerase ribozyme fitness (log ratio)” value was -2.5.

On to C20U C72A A119U, for which the “polymerase ribozyme fitness (log ratio)” value is -1.58.

On to G10U G60C G69U A108G, for which the “polymerase ribozyme fitness (log ratio)” value is -4.87.

Consider A5C G69U C72U C79A U92A, for which the “polymerase ribozyme fitness (log ratio)” value was -3.86.

With A46G G51U, the “polymerase ribozyme fitness (log ratio)” value was -2.98.

As to A5C C64U G77U G110A, the “polymerase ribozyme fitness (log ratio)” value was -3.72.

G17C C64U: the “polymerase ribozyme fitness (log ratio)” value is -4.22.

Regarding C8U A103U C115G, the “polymerase ribozyme fitness (log ratio)” value was -5.83.

Consider C11U A50C G60U G77A G122A, for which the “polymerase ribozyme fitness (log ratio)” value was 0.303.

Consider G17U U112C, for which the “polymerase ribozyme fitness (log ratio)” value was -0.756.

For A6G G48U U54A G127A, the “polymerase ribozyme fitness (log ratio)” value is -2.59.

Turning to U9G A26U G39U U78C C82G, the “polymerase ribozyme fitness (log ratio)” value is -4.7.

For C53A G57C U78A U112A A119G, the “polymerase ribozyme fitness (log ratio)” value worked out at 2.05.

Regarding A37G G69U A100U C114G, the “polymerase ribozyme fitness (log ratio)” value was -1.72.

For C49U C80G, the “polymerase ribozyme fitness (log ratio)” value was -5.44.

With G58A G120U, the “polymerase ribozyme fitness (log ratio)” value is -0.283.

As to C72U C89A, the “polymerase ribozyme fitness (log ratio)” value was -1.22.

With G60A G113U, the “polymerase ribozyme fitness (log ratio)” value is -1.94.

As to G39U C40G, the “polymerase ribozyme fitness (log ratio)” value was -3.47.

Turning to A26U C62U G71C G93A G120U, the “polymerase ribozyme fitness (log ratio)” value is -3.6.

As to G60A C85U U106G, the “polymerase ribozyme fitness (log ratio)” value is -3.68.

With G63A C82G, the “polymerase ribozyme fitness (log ratio)” value was -1.41.

Turning to G44A G60A C89G C101A C104U, the “polymerase ribozyme fitness (log ratio)” value was -2.79.

Regarding C53A U54A C56U C101U, the “polymerase ribozyme fitness (log ratio)” value amounted to 0.471.

C28U C82A C114U: the “polymerase ribozyme fitness (log ratio)” value is -3.98.

As to A74G C123U, the “polymerase ribozyme fitness (log ratio)” value came to 1.13.

On to A46G A50C C85U A90G, for which the “polymerase ribozyme fitness (log ratio)” value is -1.11.

For the variant C13G G17C A75U U87G U96A C104U, the “polymerase ribozyme fitness (log ratio)” value is -5.5.

Regarding G61U G120A, the “polymerase ribozyme fitness (log ratio)” value is 0.595.

For A18C G71U U78G, the “polymerase ribozyme fitness (log ratio)” value was -4.63.

With G19A G77U, the “polymerase ribozyme fitness (log ratio)” value is -2.96.

Consider A37U C114A C124U, for which the “polymerase ribozyme fitness (log ratio)” value was -1.39.

Turning to C49G C70U U129A, the “polymerase ribozyme fitness (log ratio)” value was -2.63.

Regarding C22G G39C A50G G51A C115U, the “polymerase ribozyme fitness (log ratio)” value was -5.65.

For the variant G39U G107U G117U, the “polymerase ribozyme fitness (log ratio)” value is -6.23.

Regarding U7A A46G C70U A111C G113A, the “polymerase ribozyme fitness (log ratio)” value is -3.8.

As for A41G G57A G77U C123A G128C, the “polymerase ribozyme fitness (log ratio)” value was -2.56.

As to U9G G52U C80A G110U, the “polymerase ribozyme fitness (log ratio)” value is -5.82.

On to C11A G47U G71A A83G G107C C124U, for which the “polymerase ribozyme fitness (log ratio)” value is -7.17.

For the variant U78A A111C, the “polymerase ribozyme fitness (log ratio)” value was -0.127.

For U7G G39A C114G, the “polymerase ribozyme fitness (log ratio)” value was -2.02.

With C82G C99A C101U A119G, the “polymerase ribozyme fitness (log ratio)” value was -6.25.

U9G C20A U54C C76U G128C: the “polymerase ribozyme fitness (log ratio)” value was -5.03.

Turning to G51U A66U A111C, the “polymerase ribozyme fitness (log ratio)” value is -6.21.

In the case of A2C C3A U9A C20U G120U, the “polymerase ribozyme fitness (log ratio)” value was -0.418.

Consider C28G C53A C72A, for which the “polymerase ribozyme fitness (log ratio)” value was -3.19.

Turning to A2G A5C G60A A74U C86U G135U, the “polymerase ribozyme fitness (log ratio)” value was -1.91.

Take U81C C124A: the “polymerase ribozyme fitness (log ratio)” value was 0.431.

For the variant A41G C56A C102U, the “polymerase ribozyme fitness (log ratio)” value is -3.9.

Take C40U C64U C82G: the “polymerase ribozyme fitness (log ratio)” value was -1.35.

For the variant C8G G19A G69U C79U A111G U129C U133A, the “polymerase ribozyme fitness (log ratio)” value is -1.15.

Consider G36C G61U A95C, for which the “polymerase ribozyme fitness (log ratio)” value was -2.42.

On to C15A U106C, for which the “polymerase ribozyme fitness (log ratio)” value is -2.44.

For A5U G63C G117A, the “polymerase ribozyme fitness (log ratio)” value is -3.54.

Regarding A50U G57C G60C C85G G113A, the “polymerase ribozyme fitness (log ratio)” value is -2.27.

Consider A18G U59A A111U, for which the “polymerase ribozyme fitness (log ratio)” value is -6.09.

As for A18U C94U, the “polymerase ribozyme fitness (log ratio)” value is -3.18.

Take G61C C101U: the “polymerase ribozyme fitness (log ratio)” value was -1.77.

For the variant C11G U33G G93U U112A G122U, the “polymerase ribozyme fitness (log ratio)” value was -6.28.

Turning to G48C C64U, the “polymerase ribozyme fitness (log ratio)” value was -1.12.

For the variant G51C G120C, the “polymerase ribozyme fitness (log ratio)” value was -2.56.

Regarding C11U C49U C101A, the “polymerase ribozyme fitness (log ratio)” value is -2.29.

With U59C U87A U112C, the “polymerase ribozyme fitness (log ratio)” value came to 0.815.

As to A6C C40G A95C, the “polymerase ribozyme fitness (log ratio)” value is -5.15.

Consider G17C C34G C99U G110U G127U, for which the “polymerase ribozyme fitness (log ratio)” value is -5.7.

Turning to A2C C12G A46C C72U G113U, the “polymerase ribozyme fitness (log ratio)” value is -7.24.

For the variant A6G U14G G58A, the “polymerase ribozyme fitness (log ratio)” value was -0.642.

Consider A74U G117A U130C, for which the “polymerase ribozyme fitness (log ratio)” value is -2.62.
